This passage reports protein production results from a protein production outcome set (Wang et al. 2014).

A short description of this data set: label from the status in PepcDB records.
With “MEEKNIHMQPNINYSYRNPNMYNMNYHNPIVPPPQQQMQLFVNDWKSILSPMQTCKIKQQFDDREFVADYFMGFKLDFNNKYLILDASTELMKFTACEKSEFCYRNCLPKICIPMNMKILSYGKEISKPDILMEKDCTCTFLCFNRPTIKMYDFSNNNNKELIGTIKTPYRCCSYNFNLFDPSNNKIMYMDDTCCQMSILCPCPWGPFKYSNFFLRDANSKEKIAHLRKEVPFLKFVKRDIDNYTLDFEQVQNPEWKMMLLAFALFLDYMYYDRK”, the protein production result is “failed”.
“MGLAASEALQGSEQEINSAFSNQITPVISGDYIVWQDERDGNWDIYMYDMSAGRTETSLFNGPKDEIEPAISGSRVVLADNRRGNYDIYMYDISTKKEVQVTSDKSEQKEPAISEDIIVWTDRRNQNTDIYMYDLTTKEETRITDDKADQSQPAVWGNIIVWKDTRNGNEDIYMYDISAGKESPVVMDSAAQTNPVIEGDYIVWEDRRAGNLDIYMYEISTGKEKPVCTDPSPQKTPAISDGRIVWADGRIKGTNIFIYDIATGQEKTVSTASEYESNPSIDGNRIVWQDKRKGAMDIFMFTEDASETESTAGEKTEAETGSKAPLGIYPVSAGVIAAYLMINSGKKGKRKTLEHHHHHH”: the protein production entry was “failed”.
With “MNALALGAKSFPIFWHYWNPIWGYYLSRNVMRPISQFLPMWLAVLVTFLVSGALHDLAIALVKWQAMFFFTPWFGIMGVIVIASNKYGLSYGALPWIMRAMINLLFILSSFSLTELTQGLLRLSA”, the protein production result is on record as “failed”.
Then “GKIVEIGVGFYLEVAKRLRESGIDILVVDINEKAINYARKQGIKGVVDDIFNPTLGIYKDAKAIYSIRPAPEMMKPLLDLARKLKIPLYIVPLTGDR”, with “failed”; and “MIDKQSGIPIYIQIQSEIKKKMEDGVWKVGTSIPAERQLAEMFHVSRMTVRQAIQGLVDDNILQRRVGAGTFIAEKKLTERLEAVTSFTNLMLQEGKVPSTRIVSYGIRPASTQEQEALQLPENSNVMKIERIRYGDRVPILYEVAAIPEKIASLLTKEDIMDSLYKAIELKLGQPIGEAEQIMEASLVSEKIAPYLDVKLGSPVMKLRQITTLEDGRPFEFTRSQYVGSRFQFVARIKQ”, with “failed”.
Turning to “TINSKFQSDVSAALKKYMGTDLTTGGYAAVMNPKTGGVYAMAGWDRNVKTGKLTQNDLAAIQDPIVMGSAVKPAMVSMALQAGVITPTSSTQDDQIIKLAGTAEKHSDFNPTGVKIPLTAEQALEDSSNTYMIQLALKMNGTPYVSGMSLNVSSNIWQKMRNGFGEFGLGSRTGIDLPGETAGYKGSITGSLASSFIDEAFGQYDTYSVIQMARFVSTIANGGYLVQPKVVASVLKSGKNGVRSSVASEVSPTIQGYVKMNNAQWNVIKTGMWDVANGSSQYNTGGTLIHELSPKVAAKTGTAESFVDGQQTQNDTLIMYSPYAPFAIAIAYVGDKVDSFGAVEKAAAAIYNAFWKDVMPKPND”, the protein production entry was “failed”.
With “MKNRSLTLRLISVLCLTALFVWLGSTLVAWWQVRHDVNKVFDAQQVLFAERLANSDLSTILLESSTTLNKNSQSVLKKSYDDDALAFAIFSKTGKLLFSDGRNGKDFIFNYKTGFYNANIYDDDDKWRIFWRMAANGELVIAVGQELDYREDLIEEMILGQMWIWFASLPILIIVLGWLIHKELRPIKRLSQEVQTRKSGDVSLLNTEGLPVEILPLVKNLNQFFDRTSAMLQRERRFTSDAAHELRSPLAALRIQIEVAQLAGDDVALREQALLHLTQGIDRASQLIEQLLTLSRLDNLQALETLQLLDWEAIVQSLISERYFVAEKRKITLVFEKESEPKQKQGQSILVSLMLRNLLDNAIKYCPEDTIVSVKISSSQIIIEDNGGGVEPEDLKKLGQRFYRPAGQNEKGSGLGLSIVMRIAELHGFKVRLENVVKEGRRIGLKAIISL”, the protein production result is given as “failed”.
Next, “MGHHHHHHSHMNSTECTLILTEGDSAKTLAVSGLGVVGRDKYGVFPLRGKILNVREASHKQIMENAEINNIIKIVGLQYKKNYEDEDSLKTLRYGKIMIMTDQDQDGSHIKGLLINFIHHNWPSLLRHRFLEEFITPIVKVSKNKQEMAFYSLPEFEEWKSSTPNHKKWKVKYYKGLGTSTSKEAKEYFADMKRHRIQFKYSGPEDDAAISLAFSKKQIDDRKEWLTNFMEDR”: “failed”; “MQLSSLTAVSPVDGRYAGKTQALRPIFSEYGLIRFRVMVEVRWLQRLAAHPQITEVPAFSAQANAILNTLAEDFSVEHAERVKEIERTTNHDVKAVEYLLKEQAAKLPELENVSEFIHFACTSEDINNLSHALMLREGRDTVMLPLMRQIADAIRELAIRFADVPMLSRTHGQPASPTTLGKELANVVYRLERQITQIAAVPLLGKINGAVGNYNAHLSAYADIDWEANARAFIEDELGLGFNPYTTQIEPHDYIAELFDAVARFNTILIDFDRDIWGYISLGYFKQRTIAGEIGSSTMPHKVNPIDFENSEGNLGIANALFQHLASKLPVSRWQRDLTDSTVLRNLGVGFAHSVIAYEASLKGISKLELNEQRIAADLDACWEVLAEPIQTVMRRYNIENPYEKLKELTRGKGIGPEALQTFIDGLDMPAQAKAELKKLTPANYIGNAAAQAKRI”: “not failed”.
For the sequence “MGDEALVVDPLRFIDVYEQVAQQEGVTITHIVDSHLHADHLSGGKALAERTGAAYYLMKSEGAVFDFEPLEQHETIDFENVHLEVLAVKTPGHTPGSVSFFVNGKWLFSGDTIFVGGLGRPDLGGKVAEWAEDLYHTVYEKVAAMADDVIVLPAHYANLDEEINAEGYVGDTLGRIRARNEMMQNKAKDEFIDLVIQGLEHHHHHH”, the protein production result was “failed”.
In the case of “MPRSCDVVVVNYNAGLLLEDCVISVLAQDINRLVLVDNASHDGSLEQVATRFAADERLLILRNPSNTGFAAACNLGASHCEQPHILFLNPDTVLQPGALQGMIDALRHTHDLGMAGGLLCNFDGSEQPGGRRVFPTPRRAVVRALNLSGLAWLSPRLFSDFLLHREPLPSRPTQVEAISGACMLVKRKALDSVGGWDEGYFLHCEDLDLCMRFRQEGWKVCFVPQARIFHAWGACSRTRPVFVEWHKHRGMIRFYGKFFREDYPRVLSWSICAGVWLRFSFVVGYHWLAQLGRILGQPR”, the protein production entry is reported as “failed”.
“MIVFDGHNDVLTELVRAGGRAAAGGFLSGLPGQLDLPRARAGGFGGGFFALWARSEGATDFSTLGPEYDLPLPEPVPEAQAWEMIRAQADTLVALEEAGAVRICTSTAQIARARDEGLLGAILHLEGAEGIGPDFYELEELYALGLRSLGPVWSRPNAFGHGVPFRYPSGPDIGPGLTERGRALIARCEELRILIDLSHLNLAGFREVAALSKRPLVATHSNAHARVPHARNLTDEQLRIMAESGGLAGVNFESTFLRPDGRPDDDIPAAWLLAQFDHLLDRLGEEGVAIGSDYDGCTPPAWLNSVDKLPALIAAMERHGYPAARIERICWGNWMRVLAETWGESA”: the protein production result is recorded as “failed”.
Then “MDYFLLHGGGNADRQSGGVHRWLAGAIRELGMLVAETSGHDAFLEQIGAVHPEVVFVRFASSPARIDVPEHDQKLGEGTDAIGEATQLVAQLTRLFPGLPLVAVGSASDGRAMLAALRAGVKDFIDVDGAPAEAVRVVRRLLAERASAEPTRRGRVLAILGARPGVGTTTLASNLATLVRRTSGGDVMLLDLGQPLRDGALYLNVPANFHFVEAVRNLRRFDQVFVQTALSRHPNGLAVLPLPVSLAEMRDISFSEALGLLNRLRTFFDLQVVDLGGFNNIDFIAQLVKAADDVMLVTEQSVGAIVSAAELMQELKKREIDRERLHLILSKFDARLSLDAEQIGVRLEIPSVLTVPSRRRALVVASNQGAMLAETHPIDPYVRAIAGIVQTLGYTQPGERAPGVAGWMAGMRARLGERFRRKPTEPAELDLRTTERNAT”, with “failed”; and “MVQLSLSQVHQDQIYRHGERCYPEECCGLLLGKILIGENGHRHWQVVEVQPTENCWGDVEEFQQNNHQGNKLHYFAIDPKVLLSAQKDCRQKGLSIIGIFHSHPHGQPIPSEFDRAIAWPEYIYLIASGLEHHHHHH”, with “failed”.
As for “AKDALLLWCQMKTAGYPNVNVHNFTTSWRDGLAFNAIVHKHRPDLLDFESLKKCNAHYNLQNAFNLAEKELGLTKLLDPEDVNVDQPDEKSIITYVATYYHYFSKMKALAVEGK”, the protein production entry is on record as “not failed”.
On to “KGVVTIEQIVDTLPDRGRSCWHLGAVWALSQFQENELFLGMYPEEHFIEKPVKEAMARFRKNLEAIVSVIAERNKKKQLPYYYLSPDRIPNSVAI”, for which the protein production result is recorded as “failed”.
“MPLDRDWIAQRIPHAGAMCLLDRVLTWDAGRLRCVAVSHLSPGNPLRAGGRLSVVCGIEYAAQATAVHGALRSAGEGEAPRSGFLVSVRDVEFHVRRLDTLDGDLVVEVECLTGDGNDALYRFRLLAADGRELLTGRLAVRLDAEAGLEHHHHHH”: the protein production result is “not failed”.
Consider “VMEIEARLEDVRQRIADVAEKSGRKAADVALVAVSKTFDAEAIQPVIDAGQRVFGENRVQEAQGKWPALKEKTSDIELHLIGPLQSNKAADAVALFDVVESIDREKIARALSEECARQGRSLRFYVQVNTGLEPQKAGIDPRETVAFVAFCRDELKLPVEGLMCIPPAEENPGPHFALLAKLAGQCGLEKLSMGMSGDFETAVEFGATSVRVGSAIFGSR”, for which the protein production entry was “not failed”.
For the sequence “MSHNEESPGIGPGAGGQDSTTALIEAINIRSMSLIVLTSIASLYFIEWAQPVLLPLVVAVLISYALDPLVATLDRIHIPRPLGAALVLCTLIAILAAASVPLKQEAMAMLDKIPQAIKELQREDASTSEDEESIMEKAQIAAKQIEETAENREGKPAVQAGVTPVRVVDEPMDVRDYVIRNSPATIVLISQMFSVLLLVFFLLSVGKLYRRKIVRISGPSFRRMRKAARIMNELHHQVRRFLFVMVISALFVGILTWLAFLLLGVEQAALWGVVAGIASGVPYLGPFLVLVGSGVAAFLQFGELNTAVIVALTSLVITSIQGNLLMPWLTSYVSSLNAVAIFIGLLFWGWLWGPVGLIVATPILMIAKSVCDHVVNFRPVGELLGK”, the protein production entry is “failed”.
Next, “MRWLLLLLLLAACRAQGLPEPYATLERGGKEALRQVALEAQGYAGLLAGWLLVGEEDLPLAERAEYAWRYALFLEEVRAFEPGWEAEAAWRVAAPLLEAAEDARAFSAWARLLPEEEAVQALLRLGQGERLWEALFRGRAYEPLLKALPEGERPDLRAQALYRLGRYEEALPHYRAWAEADPRGYLGLGYALWRLGRREEALQAFARYDHPESRLAQGRLLEGMGRVEEALARYLASTPEGLWRATALLERLGRKEEALGVYLRLAQGESPYADDAALRAYLLAGELGNGEARQEAYARLEGGLGLLVGKRPSPPPQALEAPPAPLTPLVEALVRAGKAAWARGEVRYALWRRPKDWPALVPLLYRLGAYREGIRAAWPTALAYPRAYREWVEGYAGKEGLDPDLLFALLHVESRFDPKAVSPTGALGLAQFLRSTWADVARMLGEPPADPFDPESAIRYAARYLRWLMERCAAFSGVERLACAVTAYNGGIGYTLRGIAREGGLYAFLRFQERDEPREYLAKVLSAYAAYKAIP”: “failed”; “MTETGDDLATVKKPIPFLVIFKDLRHVFSRDTTGREILGIAFPAALALAADPIASLIDTAFVGRLGAVQLAAVGVSIAIFNQASRITIFPLVSLTTSFVAEEDTMEKMKEEANKANLVHAETILVQDSLEKGISSPTSNDTNQPQQPPAPDTKSNSGNKSNKKEKRTIRTASTAMILGLILGLVQAIFLIFSSKLLLGVMGVKPNSPMLSPAHKYLSIRALGAPALLLSLAMQGIFRGFKDTKTPLFATVVADVINIVLDPIFIFVLRLGIIGAAIAHVISQYFMTLILFVFLAKKVNLIPPNFGDLQFGRFLKNGLLLLARTIAVTFCQTLAAAMAARLGTTPMAAFQICLQVWLTSSLLNDGLAVAGQAILACSFAEKDYNKVTAVASRVLQMGFVLGLGLSVFVGLGLYFGAGVFSKDPAVIHLMAIGIPFIAATQPINSLAFVLDGVNFGASDFAYTAYSMVGVAAISIAAVIYMAKTNGFIGIWIALTIYMALRAITGIARMATGTGPWRFLRGRSSSSSS”: “failed”.
